Measured values reported in PMC2171490 (The Journal of Cell Biology, 2005).

B1: ECFP–SUV39H1-ΔSET (domain or fragment, human, UniProt O43463-1 3-249, looked up)
chain: ENLKGCSVCCKSSWNQLQDLCRLAKLSCPALGISKRNLYDFEVEYLCDYKKIREQEYYLVKWRGYPDSESTWEPRQNLKCVRILKQFHKDLERELLRRHHRSKTPRHLDPSLANYLVQKAKQRRALRRWEQELNAKRSHLGRITVENEVDLDGPPRAFVYINEYRVGEGITLNQVAVGCECQDCLWAPTGGCCPGASLHKFAYNDQGQVRLRAGLPIYECNSRCRCGYDCPNRVVQKGIRYDLCIFR
B2: ECFP–SUV39H1-Nchromo (domain or fragment, human, UniProt O43463-1 3-118, looked up)
chain: ENLKGCSVCCKSSWNQLQDLCRLAKLSCPALGISKRNLYDFEVEYLCDYKKIREQEYYLVKWRGYPDSESTWEPRQNLKCVRILKQFHKDLERELLRRHHRSKTPRHLDPSLANYL
B3: ECFP-SUV39H1 (enzyme, human, UniProt O43463-1 1-412, looked up)
chain: MAENLKGCSVCCKSSWNQLQDLCRLAKLSCPALGISKRNLYDFEVEYLCDYKKIREQEYYLVKWRGYPDSESTWEPRQNLKCVRILKQFHKDLERELLRRHHRSKTPRHLDPSLANYLVQKAKQRRALRRWEQELNAKRSHLGRITVENEVDLDGPPRAFVYINEYRVGEGITLNQVAVGCECQDCLWAPTGGCCPGASLHKFAYNDQGQVRLRAGLPIYECNSRCRCGYDCPNRVVQKGIRYDLCIFRTDDGRGWGVRTLEKIRKNSFVMEYVGEIITSEEAERRGQIYDRQGATYLFDLDYVEDVYTVDAAYYGNISHFVNHSCDPNLQVYNVFIDNLDERLPRIAFFATRTIRAGEELTFDYNMQVDPVDMESTRMDSNFGLAGLPGSPKKRVRIECKCGTESCRKYLF

Target: EYFP-HP1β (UniProt P83916 1-185)
Sequence (P83916 whole entry): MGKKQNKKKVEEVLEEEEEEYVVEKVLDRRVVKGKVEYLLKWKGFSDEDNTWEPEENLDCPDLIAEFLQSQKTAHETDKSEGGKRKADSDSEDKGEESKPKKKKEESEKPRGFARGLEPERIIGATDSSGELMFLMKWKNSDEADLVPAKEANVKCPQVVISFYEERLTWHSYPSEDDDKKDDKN
Assay: FRET or BRET

Row | Binder | mean donor fluorescence lifetime τ Mod [ns] | mean donor fluorescence lifetime τφ [ns]
1 | B1 | 2.7 | 2.1
2 | B2 | 2.8 | 2.2
3 | B3 | 2.9 | 2.2
